The source of these data is patent US20260042806A1 (OXFORD NANOPORE TECHNOLOGIES, published 2026).

Test [1] concerns the target T1, CsgG (preformed nonameric CsgG pore complexes of Example 2) (Escherichia coli, UniProt P0AEA2 16-277).
T1 construct: Tyr196 fits that numbering; also called CsgG nonameric channel
T1 sequence: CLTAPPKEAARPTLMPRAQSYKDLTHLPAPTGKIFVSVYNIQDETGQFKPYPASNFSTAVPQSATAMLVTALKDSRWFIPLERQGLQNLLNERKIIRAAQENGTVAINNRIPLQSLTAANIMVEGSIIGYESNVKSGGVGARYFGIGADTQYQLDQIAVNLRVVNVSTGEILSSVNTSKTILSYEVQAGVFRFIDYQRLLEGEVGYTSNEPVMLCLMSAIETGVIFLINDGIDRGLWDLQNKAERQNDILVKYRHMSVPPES
The test can be described thus: insertion of complexes into bilayers; told of the covalent SuTide complexes as a group.

Test [2] has as its target T1, CsgG (preformed nonameric CsgG pore …). Nature of the test: SDS-PAGE time course of the reaction with CsgG.
Test [3] deals with T2, CsgG-F56Q pore (ONLP20134) (Escherichia coli, UniProt P0AEA2 16-277).
T2 construct: Oligomeric pore purified from E. coli; also called CsgG-WT-F56Q; CsgG-only pore control
T2 sequence: T1 sequence with F56Q
The test can be described thus: single-channel current traces, MinION flow cell, -180 mV.

Residue numbers refer to the chain shown, from its start. In names and notes the source's numbering stands. No end group written: not given here. *: point of attachment. 4‑(fluorosulfonyl)phenylacetyl = O=C(Cc1ccc(S(=O)(=O)F)cc1)*; Benzoyl(3-SO2F) = O=C(c1cccc(S(=O)(=O)F)c1)*; Benzoyl(4-SO2F) = O=C(c1ccc(S(=O)(=O)F)cc1)*

B1: CsgF-K30-PARA-SO2F-del(S31-F119) (peptide)
peptide: GTMTFQFRNPNFGGNPNNGAFLLNSAQAQK(Benzoyl(4-SO2F))-NH2
modifications: N-terminus assumed
SMILES: CSCC[C@H](NC(=O)[C@@H](NC(=O)CN)[C@@H](C)O)C(=O)N[C@H](C(=O)N[C@@H](Cc1ccccc1)C(=O)N[C@@H](CCC(N)=O)C(=O)N[C@@H](Cc1ccccc1)C(=O)N[C@@H](CCCNC(=N)N)C(=O)N[C@@H](CC(N)=O)C(=O)N1CCC[C@H]1C(=O)N[C@@H](CC(N)=O)C(=O)N[C@@H](Cc1ccccc1)C(=O)NCC(=O)NCC(=O)N[C@@H](CC(N)=O)C(=O)N1CCC[C@H]1C(=O)N[C@@H](CC(N)=O)C(=O)N[C@@H](CC(N)=O)C(=O)NCC(=O)N[C@@H](C)C(=O)N[C@@H](Cc1ccccc1)C(=O)N[C@@H](CC(C)C)C(=O)N[C@@H](CC(C)C)C(=O)N[C@@H](CC(N)=O)C(=O)N[C@@H](CO)C(=O)N[C@@H](C)C(=O)N[C@@H](CCC(N)=O)C(=O)N[C@@H](C)C(=O)N[C@@H](CCC(N)=O)C(=O)N[C@@H](CCCCNC(=O)c1ccc(S(=O)(=O)F)cc1)C(N)=O)[C@@H](C)O
notes: Synthetic peptide: WT CsgF(1-29) with a modified Lys at position 30; also called 4-SO2F-CsgF; CsgF-WT-K30-PARA-SO2F-del(S31-F119)
On to B1, for which the “fold increase in the proportion of bilayer embedded stable complexes over the non-covalent complex” value (“fold increase … over the non-covalent complex” for short) in test [1] turned out to be 2 fold. Further, in test [2], the “first order rate constant k1 of covalent reaction” value (“first order rate constant k1” below) was approximately 0.46 h⁻¹ and the “halftime (t1/2) of covalent complex formation” value (from here on “halftime”) is 1.5 h.

B2: CsgF-K30-META-SO2F-del(S31-F119) (peptide)
peptide: GTMTFQFRNPNFGGNPNNGAFLLNSAQAQK(Benzoyl(3-SO2F))-NH2
modifications: N-terminus assumed
SMILES: CSCC[C@H](NC(=O)[C@@H](NC(=O)CN)[C@@H](C)O)C(=O)N[C@H](C(=O)N[C@@H](Cc1ccccc1)C(=O)N[C@@H](CCC(N)=O)C(=O)N[C@@H](Cc1ccccc1)C(=O)N[C@@H](CCCNC(=N)N)C(=O)N[C@@H](CC(N)=O)C(=O)N1CCC[C@H]1C(=O)N[C@@H](CC(N)=O)C(=O)N[C@@H](Cc1ccccc1)C(=O)NCC(=O)NCC(=O)N[C@@H](CC(N)=O)C(=O)N1CCC[C@H]1C(=O)N[C@@H](CC(N)=O)C(=O)N[C@@H](CC(N)=O)C(=O)NCC(=O)N[C@@H](C)C(=O)N[C@@H](Cc1ccccc1)C(=O)N[C@@H](CC(C)C)C(=O)N[C@@H](CC(C)C)C(=O)N[C@@H](CC(N)=O)C(=O)N[C@@H](CO)C(=O)N[C@@H](C)C(=O)N[C@@H](CCC(N)=O)C(=O)N[C@@H](C)C(=O)N[C@@H](CCC(N)=O)C(=O)N[C@@H](CCCCNC(=O)c1cccc(S(=O)(=O)F)c1)C(N)=O)[C@@H](C)O
notes: Synthetic peptide: WT CsgF(1-29) with a modified Lys at position 30; also called 3-SO2F-CsgF; CsgF-WT-K30-META-SO2F-del(S31-F119)
Consider B2, for which, in test [1], the “fold increase … over the non-covalent complex” value is 2 fold. Besides, in test [2], the “first order rate constant k1” value was approximately 1 h⁻¹ and the “halftime” value is 0.66 h.

B3: CsgF-del(S31-F119) (peptide)
peptide: GTMTFQFRNPNFGGNPNNGAFLLNSAQAQN
notes: Chemically synthesised peptide; In complex ONLP20783 with CsgG-F56Q; also called CsgF-WT-del(S31-F119); del(S31-F119) CsgF peptide
Regarding B3, the binding result in test [3] is on record as “binds”.

B4: CsgF-K30-CH2-PH-P-SO2F-del(S31-F119) (peptide)
peptide: GTMTFQFRNPNFGGNPNNGAFLLNSAQAQK(4‑(fluorosulfonyl)phenylacetyl)-NH2
modifications: N-terminus assumed
SMILES: CSCC[C@H](NC(=O)[C@@H](NC(=O)CN)[C@@H](C)O)C(=O)N[C@H](C(=O)N[C@@H](Cc1ccccc1)C(=O)N[C@@H](CCC(N)=O)C(=O)N[C@@H](Cc1ccccc1)C(=O)N[C@@H](CCCNC(=N)N)C(=O)N[C@@H](CC(N)=O)C(=O)N1CCC[C@H]1C(=O)N[C@@H](CC(N)=O)C(=O)N[C@@H](Cc1ccccc1)C(=O)NCC(=O)NCC(=O)N[C@@H](CC(N)=O)C(=O)N1CCC[C@H]1C(=O)N[C@@H](CC(N)=O)C(=O)N[C@@H](CC(N)=O)C(=O)NCC(=O)N[C@@H](C)C(=O)N[C@@H](Cc1ccccc1)C(=O)N[C@@H](CC(C)C)C(=O)N[C@@H](CC(C)C)C(=O)N[C@@H](CC(N)=O)C(=O)N[C@@H](CO)C(=O)N[C@@H](C)C(=O)N[C@@H](CCC(N)=O)C(=O)N[C@@H](C)C(=O)N[C@@H](CCC(N)=O)C(=O)N[C@@H](CCCCNC(=O)Cc1ccc(S(=O)(=O)F)cc1)C(N)=O)[C@@H](C)O
notes: Synthetic peptide: WT CsgF(1-29) with a modified Lys at position 30; also called 4-CH2SO2F-CsgF; CsgF-WT-K30-CH2PH-p-SO2F-del(S31-F119)
Regarding B4, the “fold increase … over the non-covalent complex” value in test [1] is 2 fold. For the same molecule, in test [2], the “first order rate constant k1” value was approximately 0.17 h⁻¹ and the “halftime” value came out at 4 h.
